The target of the test is actin, endogenous (human (endogenous in myoblasts and myotubes from human muscle biopsies)) (UniProt P60709). As to the kind of experiment: co-IP.

This is an account of results in PMC3144404.

“STIM1L (long splice variant of stromal interaction molecule 1), endogenous (from UniProt Q13586-2 23-540) (natural protein)” came in with a percent of input immunoprecipitated of 87%.
